Test results published in patent US7648963B2, “Molecules of the PYRIN/NBS/LRR protein family and uses thereof” (Millennium Pharmaceuticals, Inc., priority 2001, dated 2010).
Residues, ends and D or L forms follow the SMILES beside them. *: point of attachment. Cbz = O=C(OCc1ccccc1)*; CH2F = FC*

B1: PYRIN-8: full-length human PYRIN-8 protein, residues 1-1061 of SEQ ID NO:18, expressed from plasmid (protein, listed as Homo sapiens)
chain: MLRTAGRDGLCRLSTYLEELEAVELKKFKLYLGTATELGEGKIPWGSMEKAGPLEMAQLLITHFGPEEAWRLALSTFERINRKDLWERGQREDLVRDTPPGGPSSLGNQSTCLLEVSLVTPRKDPQETYRDYVRRKFRLMEDRNARLGECVNLSHRYTRLLLVKEHSNPMQVQQQLLDTGRGHARTVGHQASPIKIETLFEPDEERPEPPRTVVMQGAAGIGKSMLAHKVMLDWADGKLFQGRFDYLFYINCREMNQSATECSMQDLIFSCWPEPSAPLQELIRVPERLLFIIDGFDELKPSFHDPQGPWCLCWEEKRPTELLLNSLIRKKLLPELSLLITTRPTALEKLHRLLEHPRHVEILGFSEAERKEYFYKYFHNAEQAGQVFNYVRDNEPLFTMCFVPLVCWVVCTCLQQQLEGGGLLRQTSRTTTAVYMLYLLSLMQPKPGAPRLQPPPNQRGLCSLAADGLWNQKILFEEQDLRKHGLDGEDVSAFLNMNIFQKDINCERYYSFIHLSFQEFFAAMYYILDEGEGGAGPDQDVTRLLTEYAFSERSFLALTSRFLFGLLNEETRSHLEKSLCWKVSPHIKMDLLQWIQSKAQSDGSTLQQGSLEFFSCLYEIQEEEFIQQALSHFQVIVVSNIASKMEHMVSSFCLKRCRSAQVLHLYGATYSADGEDRARCSAGAHTLLVQLPERTVLLDAYSEHLAAALCTNPNLIELSLYRNALGSRGVKLLCQGLRHPNCKLQNLRLKRCRISSSACEDLSAALIANKNLTRMDLSGNGVGFPGMMLLCEGLRHPQCRLQMIQLRKCQLESGACQEMASVLGTNPHLVELDLTGNALEDLGLRLLCQGLRHPVCRLRTLWLKICRLTAAACDELASTLSVNQSLRELDLSLNELGDLGVLLLCEGLRHPTCKLQTLRLGICRLGSAACEGLSVVLQANHNLRELDLSFNDLGDWGLWLLAEGLQHPACRLQKLWLDSCGLTAKACENLYFTLGINQTLTDLYLTNNALGDTGVRLLCKRLSHPGCKLRVLWLFGMDLNKMTHSRLAALRVTKPYLDIGC
B2: PYRIN-8ΔPYRIN: PYRIN-8 truncation mutant lacking the PYRIN domain, residues 89-1061 of SEQ ID NO:18 (protein, listed as Homo sapiens)
chain: GQREDLVRDTPPGGPSSLGNQSTCLLEVSLVTPRKDPQETYRDYVRRKFRLMEDRNARLGECVNLSHRYTRLLLVKEHSNPMQVQQQLLDTGRGHARTVGHQASPIKIETLFEPDEERPEPPRTVVMQGAAGIGKSMLAHKVMLDWADGKLFQGRFDYLFYINCREMNQSATECSMQDLIFSCWPEPSAPLQELIRVPERLLFIIDGFDELKPSFHDPQGPWCLCWEEKRPTELLLNSLIRKKLLPELSLLITTRPTALEKLHRLLEHPRHVEILGFSEAERKEYFYKYFHNAEQAGQVFNYVRDNEPLFTMCFVPLVCWVVCTCLQQQLEGGGLLRQTSRTTTAVYMLYLLSLMQPKPGAPRLQPPPNQRGLCSLAADGLWNQKILFEEQDLRKHGLDGEDVSAFLNMNIFQKDINCERYYSFIHLSFQEFFAAMYYILDEGEGGAGPDQDVTRLLTEYAFSERSFLALTSRFLFGLLNEETRSHLEKSLCWKVSPHIKMDLLQWIQSKAQSDGSTLQQGSLEFFSCLYEIQEEEFIQQALSHFQVIVVSNIASKMEHMVSSFCLKRCRSAQVLHLYGATYSADGEDRARCSAGAHTLLVQLPERTVLLDAYSEHLAAALCTNPNLIELSLYRNALGSRGVKLLCQGLRHPNCKLQNLRLKRCRISSSACEDLSAALIANKNLTRMDLSGNGVGFPGMMLLCEGLRHPQCRLQMIQLRKCQLESGACQEMASVLGTNPHLVELDLTGNALEDLGLRLLCQGLRHPVCRLRTLWLKICRLTAAACDELASTLSVNQSLRELDLSLNELGDLGVLLLCEGLRHPTCKLQTLRLGICRLGSAACEGLSVVLQANHNLRELDLSFNDLGDWGLWLLAEGLQHPACRLQKLWLDSCGLTAKACENLYFTLGINQTLTDLYLTNNALGDTGVRLLCKRLSHPGCKLRVLWLFGMDLNKMTHSRLAALRVTKPYLDIGC

How the values were obtained:
caspase-1 = assay: IL-1β secretion assay in COS-7L cells (ELISA for mouse IL-1β); type: cell-based; conditions: for IL-1β production (caspase-1 activation): co-expression with caspase-1 and CARD-5 at low protein levels, FIG. 14B
Method: Experiments were next carried out using an IL-1β secretion assay to determine whether CARD-5 and PYRIN-8 induce activation of caspase-1. Active caspase-1 cleaves pro-IL-1β, resulting in the secretion of bioactive IL-1β from cells. In the IL-1β secretion assays, COS-7L cells (GIBCO) were co-transfected in 12-well (22-mm) plates using LipofectAMINE […] reagent (Invitrogen) with plasmids encoding mouse pro-IL-1β and indicated expression plasmids (total DNA=1.04 μg). Supernatants were collected 24 hours after transfection and subjected to ELISA for mouse IL-1β according to the manufacturer's protocol (R&D Systems).
The caspase-1 inhibitor Z-WEHD-FMK was added to cells following transfection at a final concentration of 100 μM.

CARD-5 = biological target: T1, CARD-5 (Homo sapiens, UniProt Q9ULZ3); assay: Cellular co-localization (immunostaining) in 293T embryonic kidney cells; type: cell-based; conditions: 293T cells; FLAG-tagged PYRIN-8 construct co-expressed with HA-tagged CARD-5
T1 construct: expressed in transfected cells; host or cells: 293T
Method: Cellular co-localization studies were carried out to determine whether PYRIN-8 interacts with CARD-5 (also known as ASC) when the two proteins were overexpressed in 293T embryonic kidney cells. Plasmids expressing either full-length PYRIN-8 (PYRIN-8FL, residues 1-1061 of SEQ ID NO:18) or a PYRIN-8 truncation mutant lacking the PYRIN domain (PYRIN-8ΔPYRIN, residues 89-1061 of SEQ ID NO:18) with a C-terminal FLAG epitope were constructed using pCI (Promega). FLAG-tagged PYRIN-8 and HA-tagged CARD-5 were expressed in cells and detected using a mixture of anti-HA and anti-FLAG antibodies.
In immunostaining assays to detect cellular localization, 293T cells were transfected in poly-D-lysine-coated glass chamber slides (BioCoat, Becton-Dickinson Labware) with plasmids expressing HA-tagged CARD-5 and either FLAG-tagged PYRIN-8 or PYRIN-8ΔPYRIN using SuperFect transfection reagent (Qiagen). Cells were fixed 24 hours after transfection in 4% paraformaldehyde, permeabilized and blocked in a buffer containing 0.3% Triton X-100, and incubated with the following primary and secondary antibodies: rabbit anti-HA polyclonal Y-11 (Santa Cruz Biotechnology), mouse anti-FLAG monoclonal antibody M2 (Sigma), Alexa-350 goat anti-rabbit IgG (Molecular Probes), and Alexa-598 goat anti-mouse IgG (Molecular Probes). […]

T1 sequence (Q9ULZ3 whole entry): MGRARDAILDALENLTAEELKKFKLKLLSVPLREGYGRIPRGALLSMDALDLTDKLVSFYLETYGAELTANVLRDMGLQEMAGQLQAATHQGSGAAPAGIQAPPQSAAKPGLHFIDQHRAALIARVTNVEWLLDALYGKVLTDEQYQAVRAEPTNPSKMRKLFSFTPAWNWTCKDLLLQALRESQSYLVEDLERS

| Molecule | effect on IL-1β secretion induced by PYRIN-8 and CARD-5 (caspase-1; inhibitor added following transfection at a final concentration of 100 μM, FIG. 14C) | co-localization with CARD-5 punctate structures (CARD-5) | IL-1β production (caspase-1 activation) (caspase-1) |
| --- | --- | --- | --- |
| COC(=O)CC[C@H](NC(=O)[C@H](Cc1c[nH]c2ccccc12)NC(=O)OCc1ccccc1)C(=O)N[C@@H](Cc1cnc[nH]1)C(=O)N[C@@H](CC(=O)OC)C(=O)CF [Z-WEHD, Z-WEHD-FMK, reference compound] (Cbz-WE(OMe)HD(OMe)-CH2F) | blocked the ability of PYRIN-8 and CARD-5 to induce the secretion of IL-1β | – | – |
| B1 | – | co-localize with CARD-5 | increase in IL-1β production |
| B2 | – | failed to associate with the CARD-5 punctate structures | eliminated the synergistic production of IL-1β |
